Columns and labels:
ca094_human C1orf94 = target: T1, ca094_human C1orf94 (UniProt Q6P1W5)
T1 sequence: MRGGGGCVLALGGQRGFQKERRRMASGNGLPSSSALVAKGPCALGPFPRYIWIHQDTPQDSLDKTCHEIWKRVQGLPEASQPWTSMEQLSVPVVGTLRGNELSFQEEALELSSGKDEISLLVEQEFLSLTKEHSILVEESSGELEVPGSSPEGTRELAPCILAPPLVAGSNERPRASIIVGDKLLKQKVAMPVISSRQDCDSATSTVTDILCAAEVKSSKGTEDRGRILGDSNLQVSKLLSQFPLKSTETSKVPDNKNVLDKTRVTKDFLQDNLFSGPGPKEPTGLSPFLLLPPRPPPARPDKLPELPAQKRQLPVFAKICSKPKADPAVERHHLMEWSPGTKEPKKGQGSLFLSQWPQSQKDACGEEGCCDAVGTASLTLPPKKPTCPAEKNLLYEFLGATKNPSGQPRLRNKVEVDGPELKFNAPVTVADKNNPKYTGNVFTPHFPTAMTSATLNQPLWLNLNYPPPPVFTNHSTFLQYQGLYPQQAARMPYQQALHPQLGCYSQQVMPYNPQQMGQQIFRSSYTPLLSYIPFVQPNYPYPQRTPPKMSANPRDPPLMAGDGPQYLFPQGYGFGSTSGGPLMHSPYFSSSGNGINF

pnma5_human PNMA5 = pnma5_human PNMA5 (UniProt Q96PV4)
phs_human PCBD1 = target: T2, phs_human PCBD1 (UniProt P61457)
T2 sequence: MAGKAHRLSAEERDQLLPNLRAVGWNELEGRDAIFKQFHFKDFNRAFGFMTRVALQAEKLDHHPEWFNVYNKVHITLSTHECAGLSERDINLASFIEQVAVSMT

pde9a_human PDE9A = pde9a_human PDE9A (UniProt O76083)

Measured: effect of a mutation on the interaction

Sequence of pnma5_human PNMA5 (Q96PV4 whole entry): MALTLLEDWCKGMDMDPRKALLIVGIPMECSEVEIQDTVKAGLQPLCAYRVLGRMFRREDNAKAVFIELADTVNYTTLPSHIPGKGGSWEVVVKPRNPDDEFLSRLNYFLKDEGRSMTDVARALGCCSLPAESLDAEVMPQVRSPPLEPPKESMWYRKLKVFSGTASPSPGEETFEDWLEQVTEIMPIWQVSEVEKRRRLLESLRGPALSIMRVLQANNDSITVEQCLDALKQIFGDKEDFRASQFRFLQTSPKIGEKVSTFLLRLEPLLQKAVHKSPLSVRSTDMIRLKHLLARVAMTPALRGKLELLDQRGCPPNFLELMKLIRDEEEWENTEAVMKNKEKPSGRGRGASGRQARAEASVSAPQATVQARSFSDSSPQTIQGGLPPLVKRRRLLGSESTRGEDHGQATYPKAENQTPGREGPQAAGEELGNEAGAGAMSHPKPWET
Sequence of pde9a_human PDE9A (O76083 whole entry): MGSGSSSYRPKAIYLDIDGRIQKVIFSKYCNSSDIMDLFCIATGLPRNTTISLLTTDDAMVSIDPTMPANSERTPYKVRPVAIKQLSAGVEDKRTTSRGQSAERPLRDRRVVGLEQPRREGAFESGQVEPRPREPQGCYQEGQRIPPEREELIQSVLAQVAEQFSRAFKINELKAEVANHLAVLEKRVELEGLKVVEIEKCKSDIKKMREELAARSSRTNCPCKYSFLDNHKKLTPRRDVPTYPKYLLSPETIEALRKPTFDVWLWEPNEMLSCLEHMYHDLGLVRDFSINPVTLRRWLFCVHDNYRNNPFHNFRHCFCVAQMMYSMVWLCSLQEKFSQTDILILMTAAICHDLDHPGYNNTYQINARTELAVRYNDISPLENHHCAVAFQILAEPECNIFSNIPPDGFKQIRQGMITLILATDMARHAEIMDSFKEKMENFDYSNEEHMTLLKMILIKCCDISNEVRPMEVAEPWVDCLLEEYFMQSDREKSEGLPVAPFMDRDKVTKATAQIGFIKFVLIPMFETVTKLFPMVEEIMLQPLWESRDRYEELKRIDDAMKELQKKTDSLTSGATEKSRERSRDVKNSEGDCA

Golgi reassembly-stacking protein 2 (Homo sapiens) (from UniProt Q9H8Y8) L320R
with no effect: all assays above
